Assay results from patent US4137307A, “Process for preparing haptoglobin aqueous solution using strong anion exchanger” (The Green Cross Corporation, priority 1973, dated 1979).

Key:
hemoglobin [1] = assay: Residual hemoglobin-binding capacity of haptoglobin after heat treatment (60° C., 10 hours); format: physicochemical; conditions: for Residual hemoglobin-binding capacity of haptoglobin after heat treatment: haptoglobin solution of Example 1, 60° C., 10 hours
Procedure: In this example, the relation between the amount used and the stabilizing effects of various stabilizers was examined by measuring the residual hemoglobin-binding capacity of haptoglobin after heat treatment.
The stabilizers used were glycine and alanine as neutral amino acids, and mannitol and glucose as saccharides. Each of the said stabilizers was dissolved in haptoglobin solution in such proportions as shown in Table 7 and then heated at 60° C. for 10 hours. Thereafter, the hemoglobin-binding capacity of the haptoglobin of the solution was measured, and the ratio thereof to the value before heat treatment represented by percentage.
For comparison, the haptoglobin solution without addition of stabilizer was subjected to the same heat treatment as above, and the hemoglobin-binding capacity of haptoglobin of the solution was measured.

hemoglobin [2] = assay: as above; format: physicochemical; conditions: dialysate of Example 3
hemoglobin [3] = assay: Hemoglobin-binding capacity of haptoglobin (polyacrylamide gel thin layer electrophoresis, benzidine staining); conditions: maximum addition of hemoglobin with no free hemoglobin observed
[4] = test system: arterial blood pressure of the dog; assay: Hypotensive activity (arterial blood pressure of the dog before and after administration); format: in vivo; conditions: less than 10% evaluated as hypotensive activity negative
Procedure: (§1) The acute toxicity was represented by LD50 measured when the aqueous haptoglobin solution was intravenously injected into mice and rats. The hypotensive activity was represented by the ratio of arterial blood pressure of the dog before and after administration of haptoglobin solution. A ratio less than 10% was evaluated as hypotensive activity negative. The measurement of HB-Ag was made by the radioimmunoassay method (Sadatake Kato et al.: Japanese Patent Publication No. 49,919/73) using Ausria-125 kit, products of Abbott Co.

Rats = assay: Acute toxicity, LD50, intravenous, rats; format: in vivo
Procedure: as §1

HB-Ag = HB-Ag measurement by radioimmunoassay (Ausria-125 kit); set-up: species or system hepatitis B virus
Procedure: as §1

Mice = assay: Acute toxicity, LD50, intravenous, mice; format: in vivo
Procedure: as §1

rabbits [5] = assay: Survival of rabbits after haptoglobin and/or hemoglobin administration; format: in vivo; conditions: fourth day, 10 tested
From the text: (§2) Thirty mature rabbits of body weight ranging from 2.3 to 2.9 kg were equally divided into 3 groups (10 rabbits per group), and continuously administered with haptoglobin and/or hemoglobin, and then the survival of the rabbits was observed. At the end of the observation, the survived rabbits were anatomized, and various organs thereof were subjected to histopathological examination.
(§3) A 5% solution of haptoglobin in isotonic sodium chloride solution prepared according to the present invention was continuously administered drop-wise intravenously once a day at a dose of 0.8 g/kg (body weight).
(§4) A 10% solution of hemoglobin in isotonic sodium chloride solution isolated from red blood cells of the rabbit was continuously administered drop-wise intraveneously once a day at a dose of 0.4 g/kg (body weight).
(§5) Hemoglobin and then the haptoglobin of the invention were administered in the same manner and dose in the case of both the first and the second groups.
On the fourth day of administration, the survival of the rabbits of each group was examined.

rabbits [6] = assay: Histopathological examination of rabbits after haptoglobin and/or hemoglobin administration; format: in vivo
From the text: as §2, §3, §4, §5

mouse or rat and humans = assay: Toxicity / adverse effects on injection of the aqueous solution of haptoglobin; format: in vivo, human
patient = assay: Clinical application to a patient (pelvis fracture, urethra rupture and bleeding shock); format: in vivo, human
From the text: An example, in which the haptoglobin prepared in Example 2 was clinically applied to a patient, is illustrated below.
The patient was a person, who had been severely stricken on the left waist with lumber that had fallen down during their work and had been sent to hospital as an emergency case. The diagnosis was pelvis fracture, urethra rupture and bleeding shock. Immediately after hospitalization, the patient was subjected to an operation for urinary tract reconstruction. During the operation, the total amount of bleeding was 7,500 ml, the total amount of blood transfused was 4,200 ml, and the total artificial expander transfused was 4,200 ml. […] The clinical progress of the patient after the operation is shown in the accompanying drawing. […] At this stage, 250 ml of a 5% solution of the haptoglobin prepared according to the present invention in isotonic sodium chloride solution was administered to the patient drop-wise intravenously.

[7] = First group: haptoglobin 0.8 g/kg i.v. once a day
[8] = Third group: hemoglobin 0.4 g/kg then haptoglobin 0.8 g/kg i.v. once a day
[9] = 250 ml of a 5% solution, drop-wise intravenously
[10] = Second group: hemoglobin 0.4 g/kg i.v. once a day

OC[C@@H](O)[C@@H](O)[C@H](O)[C@H](O)CO [Mannitol, mannitol]
Residual hemoglobin-binding capacity of haptoglobin after heat treatment (hemoglobin [1]; stabilizer amount 5%): 15% | Residual hemoglobin-binding capacity of haptoglobin after heat treatment (hemoglobin [1]; stabilizer amount 7%): 40% | Residual hemoglobin-binding capacity of haptoglobin after heat treatment (hemoglobin [1]; stabilizer amount 10%): 55% | Residual hemoglobin-binding capacity of haptoglobin after heat treatment (hemoglobin [1]; stabilizer amount 15%): 80% | Residual hemoglobin-binding capacity of haptoglobin after heat treatment (hemoglobin [1]; stabilizer amount 20%): 85% | Residual hemoglobin-binding capacity of haptoglobin after heat treatment (hemoglobin [2]; stabilizer amount 20%): 85%

NCC(=O)O [Glycine, glycine]
Residual hemoglobin-binding capacity of haptoglobin after heat treatment (hemoglobin [1]; stabilizer amount 2.25%): 20% | Residual hemoglobin-binding capacity of haptoglobin after heat treatment (hemoglobin [1]; stabilizer amount 5%): 35% | Residual hemoglobin-binding capacity of haptoglobin after heat treatment (hemoglobin [1]; stabilizer amount 10%): 70% | Residual hemoglobin-binding capacity of haptoglobin after heat treatment (hemoglobin [1]; stabilizer amount 15%): 95% | Residual hemoglobin-binding capacity of haptoglobin after heat treatment (hemoglobin [1]; stabilizer amount 20%): 95% | Residual hemoglobin-binding capacity of haptoglobin after heat treatment (hemoglobin [2]; stabilizer amount 20%): 92%

OC[C@H]1OC(O)[C@H](O)[C@@H](O)[C@@H]1O (some centres unmarked) [Glucose, glucose]
Residual hemoglobin-binding capacity of haptoglobin after heat treatment (hemoglobin [1]; stabilizer amount 15%): 45% | Residual hemoglobin-binding capacity of haptoglobin after heat treatment (hemoglobin [1]; stabilizer amount 20%): 60% | Residual hemoglobin-binding capacity of haptoglobin after heat treatment (hemoglobin [2]; stabilizer amount 20%): 72%

OC[C@@H](O)[C@@H](O)[C@H](O)[C@@H](O)CO [Sorbitol, sorbitol]
Residual hemoglobin-binding capacity of haptoglobin after heat treatment (hemoglobin [2]; stabilizer amount 20%): 76%

Experiment 4: haptoglobin solution by the method of Example 1 with CM-cellulose, non-adsorbed fraction, 0.05 M phosphate buffer (pH 7.0)
Hemoglobin-binding capacity (hemoglobin [3]): 0.61 mg hemoglobin/mg haptoglobin | Hypotensive activity [4]: 9.8% | LD50 (Rats): ≥ 10500 mg/kg | HB-Ag (HB-Ag): Negative | LD50 (Mice): ≥ 11700 mg/kg

Example 3 before treatment: haptoglobin solution of Example 3 before the treatment with the ion exchanger
Hypotensive activity [4]: 24.0%

Example 2: sterile aqueous haptoglobin solution from Cohn fraction IV, heated with 20% mannitol, purified on GE Cellulose (guanidoethyl cellulose)
Hemoglobin-binding capacity (hemoglobin [3]): 0.68 mg hemoglobin/mg haptoglobin | Hypotensive activity [4]: 6.0% | LD50 (Rats): ≥ 10000 mg/kg | HB-Ag (HB-Ag): Negative | LD50 (Mice): ≥ 12000 mg/kg

C[C@H](N)C(=O)O [Alanine, alanine]
Residual hemoglobin-binding capacity of haptoglobin after heat treatment (hemoglobin [1]; stabilizer amount 15%): 50% | Residual hemoglobin-binding capacity of haptoglobin after heat treatment (hemoglobin [1]; stabilizer amount 20%): 75% | Residual hemoglobin-binding capacity of haptoglobin after heat treatment (hemoglobin [2]; stabilizer amount 20%): 83%

haptoglobin
Hemoglobin-binding capacity after heat treatment in the absence of stabilizer (hemoglobin [1]; absence of stabilizer): lost its hemoglobin-binding capacity | Activity of haptoglobin after heat treatment (hemoglobin [1]; aqueous solution without stabilizer, 60° C. for 10 hours): substantially nil | Residual hemoglobin-binding capacity of haptoglobin after heat treatment (hemoglobin [1]; no stabilizer (None)): ≈ 0% | Haptoglobin activity maintained after heat treatment (hemoglobin [1]; with stabilizer, 60° C. and 10 hours): 95% | Number of dead (rabbits [5]; [7]): 0 | Number of survival (rabbits [5]; [7]): 10 | Number of dead (rabbits [5]; [8]): 1 | Number of survival (rabbits [5]; [8]): 9 | Histopathology (rabbits [6]; First group: haptoglobin for 14 days): no change was observed in its kidney, spleen and lung, and only slight narrowing of sinusoid and deposition of iron were observed in the liver | Prevention of renal troubles caused by hemoglobin; adverse effects (conclusion) (rabbits [6]; rabbits, Example 6): does not substantially bring about any adverse effects and has the excellent effect of preventing renal troubles caused by hemoglobin | Residual hemoglobin-binding capacity of haptoglobin after heat treatment (hemoglobin [2]; no stabilizer (None)): 0% | Adverse effect (mouse or rat and humans; 5% solution in isotonic sodium chloride, drop-wise intravenously, human adult): no adverse effect is observed at all | Toxicity (mouse or rat and humans; injected in large quantities into mouse, rat, humans): extremely low | Adverse effects on injection in large quantities (mouse or rat and humans; mouse or rat and humans): no adverse effects | Amount of urine (patient; [9]): increase | General symptoms of the patient (patient; [9]): gradually improved | Time to disappearance of blood pigments from the urine (patient; 250 ml of a 5% solution, drop-wise intravenously, person): blood pigments disappeared from the urine within several hours after haptoglobin administration | Adverse effect due to the administration (patient; even 6 months after recovery): No adverse effect

Example 2 before treatment: haptoglobin solution of Example 2 before the treatment with the ion exchanger
Hypotensive activity [4]: 12.0%

Experiment 5: haptoglobin solution by the method of Example 1 with CM-Sephadex, non-adsorbed fraction, 0.05 M phosphate buffer (pH 7.0)
Hemoglobin-binding capacity (hemoglobin [3]): 0.62 mg hemoglobin/mg haptoglobin | Hypotensive activity [4]: 9.0% | LD50 (Rats): ≥ 10500 mg/kg | HB-Ag (HB-Ag): Negative | LD50 (Mice): ≥ 11700 mg/kg

Example 1 before treatment: haptoglobin solution of Example 1 before the treatment with the ion exchanger
Hypotensive activity [4]: 18%

OC[C@H]1O[C@@](CO)(O[C@H]2O[C@H](CO)[C@@H](O)[C@H](O)[C@H]2O)[C@@H](O)[C@@H]1O [Sucrose, sucrose]
Residual hemoglobin-binding capacity of haptoglobin after heat treatment (hemoglobin [2]; stabilizer amount 20%): 68%

hemoglobin
Number of dead (rabbits [5]; [10]): 7 | Number of survival (rabbits [5]; [10]): 3 | Histopathology (rabbits [6]; Second group: hemoglobin for 6 days): marked deposition of iron was observed from proximal tuble to collecting tube of the kidney, thinning of renal epithelial cells was observed, propagation of reticular cells was observed in the spleen, and marked narrowing of sinusoid and deposition of iron were observed in the liver
